Source: US20180155451A1 (published 2018)

T1: FcγRIIb (human, UniProt P31994 43-217)
T1 construct: extracellular domain; also called FcgRIIb; 2b; not shown: His tag at the C terminus
T1 sequence (looked up): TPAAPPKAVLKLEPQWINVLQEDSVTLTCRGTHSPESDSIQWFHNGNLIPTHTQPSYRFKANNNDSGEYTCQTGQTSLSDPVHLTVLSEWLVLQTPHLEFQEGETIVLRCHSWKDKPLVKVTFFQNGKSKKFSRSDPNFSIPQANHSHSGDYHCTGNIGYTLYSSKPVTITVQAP

T2: FcγRIIa R (human FcγRIIa, allotype R, Arg at position 131), extracellular domain with C-terminal His tag (human, UniProt P12318 34-217)
T2 construct: extracellular domain; expressed in FreeStyle293 cells; analyte in Biacore; also called 2aR; FcgRIIa R
T2 sequence (looked up): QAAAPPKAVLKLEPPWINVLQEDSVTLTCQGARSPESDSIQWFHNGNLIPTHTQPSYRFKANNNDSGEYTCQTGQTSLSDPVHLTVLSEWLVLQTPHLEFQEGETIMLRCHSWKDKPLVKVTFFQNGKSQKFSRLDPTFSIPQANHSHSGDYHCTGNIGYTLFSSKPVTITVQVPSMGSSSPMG


Key:
FcγRIa [1] = target: T3, FcγRIa (human, UniProt P12314 16-292); assay: SPR (Biacore), antibody captured, FcγR as analyte; binding as % of GpH7-A5/GpH7-B3/GpL16-k0
T3 construct: extracellular domain; also called FcgRI; 1a; not shown: His tag at the C terminus

FcγRIIb = target: T1, FcγRIIb; assay: as above
FcγRIa [2] = target: T3, FcγRIa; assay: SPR (Biacore); He/Con_1a (FcγRIa) divided by He/Con_2b (FcγRIIb)
[3] = target: T2, FcγRIIa R (human FcγRIIa, allotype R, …); assay: SPR (Biacore), relative binding vs GpH7-A5/GpH7-B3/GpL16-k0

T3 sequence (P12314 16-292): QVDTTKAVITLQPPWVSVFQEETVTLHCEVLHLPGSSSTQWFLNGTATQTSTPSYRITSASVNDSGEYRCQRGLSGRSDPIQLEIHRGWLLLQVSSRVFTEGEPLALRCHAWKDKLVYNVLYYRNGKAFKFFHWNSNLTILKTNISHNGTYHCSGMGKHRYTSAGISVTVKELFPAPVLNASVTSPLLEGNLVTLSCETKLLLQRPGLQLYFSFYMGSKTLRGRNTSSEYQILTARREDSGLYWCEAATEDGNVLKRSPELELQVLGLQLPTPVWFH

He/Con_1a (FcγRIa [1])	He/Con_2b (FcγRIIb)	Ia/IIb He_1a/2b (FcγRIa [2])	He/Con_2aR [3]	Binder
100 % of control	177 % of control	0.57 ratio	–	GpH7-A5/GpH7-B3 variant K326_08L/GpL16-k0 (antibody, human IgG1, kappa, heterodimerized IgG1; alteration in the GpH7-B3 H chain only; also called He Ab) heavy 1: not shown heavy 2: not shown light: DIVMTQSPLSLPVTPGEPASISCQASESLVHSNRNTYLHWYLQKPGQSPQLLIYKVSNRFSGVPDRFSGSGSGTDFTLKISRVEAEDVGVYYCSQNTHVPPTFGQGTKVEIERTVAAPSVFIFPPSDEQLKSGTASVVCLLNNFYPREAKVQWKVDNALQSGNSQESVTEQDSKDSTYSLSSTLTLSKADYEKHKVYACEVTHQGLSSPVTKSFNRGEC
–	–	–	105 relative, control = 100	GpH7-A5/GpH7-B3 variant S337_02A/GpL16-k0 (antibody, human IgG1, kappa, heterodimerized antibody, mutation in one H chain only; also called He Ab) heavy 1: not shown heavy 2: not shown light: DIVMTQSPLSLPVTPGEPASISCQASESLVHSNRNTYLHWYLQKPGQSPQLLIYKVSNRFSGVPDRFSGSGSGTDFTLKISRVEAEDVGVYYCSQNTHVPPTFGQGTKVEIERTVAAPSVFIFPPSDEQLKSGTASVVCLLNNFYPREAKVQWKVDNALQSGNSQESVTEQDSKDSTYSLSSTLTLSKADYEKHKVYACEVTHQGLSSPVTKSFNRGEC
–	–	–	173 relative, control = 100	GpH7-A5/GpH7-B3 variant S267_09D/GpL16-k0 (antibody, human IgG1, kappa, heterodimerized antibody, mutation in one H chain only; also called He Ab) heavy 1: not shown heavy 2: not shown light: DIVMTQSPLSLPVTPGEPASISCQASESLVHSNRNTYLHWYLQKPGQSPQLLIYKVSNRFSGVPDRFSGSGSGTDFTLKISRVEAEDVGVYYCSQNTHVPPTFGQGTKVEIERTVAAPSVFIFPPSDEQLKSGTASVVCLLNNFYPREAKVQWKVDNALQSGNSQESVTEQDSKDSTYSLSSTLTLSKADYEKHKVYACEVTHQGLSSPVTKSFNRGEC
–	–	–	122 relative, control = 100	GpH7-A5/GpH7-B3 variant P238_16H/GpL16-k0 (antibody, human IgG1, kappa, heterodimerized antibody, mutation in one H chain only; also called He Ab) heavy 1: not shown heavy 2: not shown light: DIVMTQSPLSLPVTPGEPASISCQASESLVHSNRNTYLHWYLQKPGQSPQLLIYKVSNRFSGVPDRFSGSGSGTDFTLKISRVEAEDVGVYYCSQNTHVPPTFGQGTKVEIERTVAAPSVFIFPPSDEQLKSGTASVVCLLNNFYPREAKVQWKVDNALQSGNSQESVTEQDSKDSTYSLSSTLTLSKADYEKHKVYACEVTHQGLSSPVTKSFNRGEC
–	–	–	114 relative, control = 100	GpH7-A5/GpH7-B3 variant P331_03V/GpL16-k0 (antibody, human IgG1, kappa, heterodimerized antibody, mutation in one H chain only; also called He Ab) heavy 1: not shown heavy 2: not shown light: DIVMTQSPLSLPVTPGEPASISCQASESLVHSNRNTYLHWYLQKPGQSPQLLIYKVSNRFSGVPDRFSGSGSGTDFTLKISRVEAEDVGVYYCSQNTHVPPTFGQGTKVEIERTVAAPSVFIFPPSDEQLKSGTASVVCLLNNFYPREAKVQWKVDNALQSGNSQESVTEQDSKDSTYSLSSTLTLSKADYEKHKVYACEVTHQGLSSPVTKSFNRGEC
106 % of control	159 % of control	0.66 ratio	–	GpH7-A5/GpH7-B3 variant K326_15Y/GpL16-k0 (antibody, human IgG1, kappa, heterodimerized IgG1; alteration in the GpH7-B3 H chain only; also called He Ab) heavy 1: not shown heavy 2: not shown light: DIVMTQSPLSLPVTPGEPASISCQASESLVHSNRNTYLHWYLQKPGQSPQLLIYKVSNRFSGVPDRFSGSGSGTDFTLKISRVEAEDVGVYYCSQNTHVPPTFGQGTKVEIERTVAAPSVFIFPPSDEQLKSGTASVVCLLNNFYPREAKVQWKVDNALQSGNSQESVTEQDSKDSTYSLSSTLTLSKADYEKHKVYACEVTHQGLSSPVTKSFNRGEC
–	–	–	117 relative, control = 100	GpH7-A5/GpH7-B3 variant P238_20W/GpL16-k0 (antibody, human IgG1, kappa, heterodimerized antibody, mutation in one H chain only; also called He Ab) heavy 1: not shown heavy 2: not shown light: DIVMTQSPLSLPVTPGEPASISCQASESLVHSNRNTYLHWYLQKPGQSPQLLIYKVSNRFSGVPDRFSGSGSGTDFTLKISRVEAEDVGVYYCSQNTHVPPTFGQGTKVEIERTVAAPSVFIFPPSDEQLKSGTASVVCLLNNFYPREAKVQWKVDNALQSGNSQESVTEQDSKDSTYSLSSTLTLSKADYEKHKVYACEVTHQGLSSPVTKSFNRGEC
–	–	–	103 relative, control = 100	GpH7-A5/GpH7-B3 variant P271_10E/GpL16-k0 (antibody, human IgG1, kappa, heterodimerized antibody, mutation in one H chain only; also called He Ab) heavy 1: not shown heavy 2: not shown light: DIVMTQSPLSLPVTPGEPASISCQASESLVHSNRNTYLHWYLQKPGQSPQLLIYKVSNRFSGVPDRFSGSGSGTDFTLKISRVEAEDVGVYYCSQNTHVPPTFGQGTKVEIERTVAAPSVFIFPPSDEQLKSGTASVVCLLNNFYPREAKVQWKVDNALQSGNSQESVTEQDSKDSTYSLSSTLTLSKADYEKHKVYACEVTHQGLSSPVTKSFNRGEC
105 % of control	193 % of control	0.54 ratio	–	GpH7-A5/GpH7-B3 variant P271_01G/GpL16-k0 (antibody, human IgG1, kappa, heterodimerized IgG1; alteration in the GpH7-B3 H chain only; also called He Ab) heavy 1: not shown heavy 2: not shown light: DIVMTQSPLSLPVTPGEPASISCQASESLVHSNRNTYLHWYLQKPGQSPQLLIYKVSNRFSGVPDRFSGSGSGTDFTLKISRVEAEDVGVYYCSQNTHVPPTFGQGTKVEIERTVAAPSVFIFPPSDEQLKSGTASVVCLLNNFYPREAKVQWKVDNALQSGNSQESVTEQDSKDSTYSLSSTLTLSKADYEKHKVYACEVTHQGLSSPVTKSFNRGEC
